The target in experiment [1] is T1, CHO cells that express human α6β4 (Homo sapiens, UniProt P16144+P23229).
T1 construct: expressed in transfected cells; host or cells: CHO
Nature of the experiment: Cell adhesion assay, α6β4-CHO cells. Conditions: DMEM, 1 h at 37° C. Type of experiment: cell-based. Here is the method:
FIG. 17. CHO cells that express human α6β4 adhered to wt NRG1 (175-222) but not to the 3KE (175-222) mutant. Wells of 96-well microtiter plate were coated with wt or 3KE mutant NRG1 (175-222) and incubated with α6β4-CHO or β1-CHO cells in DMEM for 1 h at 37° C. as described herein. Bound cells were quantified.

A further experiment relates to M21 human melanoma cells. Nature of the experiment: Western blotting of signaling in M21 cells. The format is cell-based. Conditions: 10 ng/ml; for ERK1/2 activation in M21 cells / ErbB3 phosphorylation in M21 cells: 15 min. Here is the method:
FIG. 9. Effect of the 3KE (175-222) mutation on ErbB3 phosphorylation, ERK1/2 activation, and cyclin D1 levels in M21 human melanoma cells. Cells were cultured in DMEM+1% FBS medium for 24 h, and then treated with 3KE or WT NRG1 (175-222) (10 ng/ml, if concentrations were not indicated) for 15 min (if time is not specified). Cell lysates were analyzed by Western blotting.
(§1) Cell proliferation: cells were starved by culturing DMEM with low-level FCS (e.g., 0.4%) overnight and then treated with the wt or mutant NRG1 (175-222) (up to 100 ng/ml). The cells were harvested in 15 min to 6 h after stimulation and cell lysates analyzed by western blotting with antibodies specific to signaling molecules. Alternatively, cells were cultured for 24-48 h after stimulation for testing proliferation or cell viability by MTS assays. Statistical analysis and calculation of kinetic constants were performed using Prism software (Graphpad).
Signaling: The levels of cell proliferation were measured by MTS assays and the kinetic data were analyzed by using Prism software (Graphpad). Melanoma cells were cultured in the presence of wt or mutant NRG1 (175-222), and the levels of ErbB2 and B3 phosphorylation, MAP kinase activation, or activation of other signaling molecules in the cell lysates were monitored by immunoprecipitating ErbB2 and B3 from the lysates and detecting tyrosine phosphorylation by western blotting with anti-phosphotyrosine antibodies (the IP-Western method) for ErbB2 and B3. Alternatively, anti-phospho ErbB2 or B3 antibodies (commercially available) and anti-phospho ERK1/2 antibodies were used.

Experiment [2] has as its system Human MCF-7 breast cancer cells. Nature of the experiment: MCF-7 cell proliferation, MTS assay. Type of experiment: cell-based. Conditions: serum-starved overnight, cultured 48 h, P=0.0018. As for the experimental part:
FIG. 12. Effect of wt and 3KE NRG1 (175-222) on the proliferation of MCF-7 cells. Human MCF-7 breast cancer cells were serum-starved overnight and cultured 48 h with wt or mutant GST-NRG1 (175-222). Cell proliferation was measured by using MTS assays. […] P=0.0018 by 2-way ANOVA.
as §1
(Formazan colour is commonly taken as a measure of viable cells.)

In experiment [3] the test system is mock-transfected K562 cells. Put plainly: Cell adhesion assay, mock-transfected K562 cells. Type of experiment: cell-based, human. Here is the method: FIG. 5. […] Adhesion assays was performed using αvβ3-K562 (left) or mock transfected cells (right) as described herein. The data is shown as means+/−SEM of triplicate experiments.
Cell adhesion and soluble integrin binding assays were performed as described previously (Mori, et al., 2008). NRG1α (175-241) was immobilized to wells of 96-well microtiter plate overnight at 4° C. in 0.1 M carbonate buffer, pH 2 9.4. Remaining protein binding sites were blocked by incubating with 200 μl of 0.1% BSA in PBS for 60 min at room temperature. Wells were then incubated with soluble integrin αvβ3 in 50 μl in Hepes-Tyrode's buffer supplemented with 1 mM Mn2+ at room temperature for 60 min. After rinsing the wells with the same buffer, bound integrins were determined by horseradish peroxidase (HRP)-conjugated anti-His tag mouse IgG and substrate 3,3′,5,5′-tetramethylbenzidine of HRP.

In experiment [4] the target is T2, Recombinant human ErbB3 Fc chimera (Homo sapiens, UniProt P21860).
T2 construct: Recombinant soluble ErbB3 Fc fusion protein was coated onto well of 96-well microtiter plate; purchased R&D Systems
T2 sequence (P21860 20-643 limits assumed, change not shown): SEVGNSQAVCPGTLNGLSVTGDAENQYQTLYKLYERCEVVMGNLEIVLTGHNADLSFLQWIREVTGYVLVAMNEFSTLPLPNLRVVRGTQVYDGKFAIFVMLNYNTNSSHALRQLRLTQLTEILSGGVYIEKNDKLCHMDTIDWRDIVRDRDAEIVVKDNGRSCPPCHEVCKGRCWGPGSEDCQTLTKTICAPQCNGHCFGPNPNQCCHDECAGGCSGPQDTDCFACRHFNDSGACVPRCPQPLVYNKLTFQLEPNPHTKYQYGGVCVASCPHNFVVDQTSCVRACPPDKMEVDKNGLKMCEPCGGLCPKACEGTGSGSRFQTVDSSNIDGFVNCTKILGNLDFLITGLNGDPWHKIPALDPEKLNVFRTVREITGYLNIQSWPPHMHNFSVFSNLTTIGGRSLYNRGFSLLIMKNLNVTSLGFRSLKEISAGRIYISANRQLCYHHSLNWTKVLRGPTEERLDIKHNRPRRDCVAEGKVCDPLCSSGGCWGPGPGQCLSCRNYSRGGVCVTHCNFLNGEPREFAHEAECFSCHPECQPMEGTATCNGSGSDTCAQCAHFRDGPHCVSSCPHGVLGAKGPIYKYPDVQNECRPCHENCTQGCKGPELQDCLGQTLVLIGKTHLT
Nature of the experiment: ELISA-type binding to immobilized recombinant soluble ErbB3. Conditions: ErbB3 Fc coated at 1 μg/ml, 1 h room temperature. Here is the method:
FIG. 20. The 3KE mutant of NRG1α (175-241) binds to ErbB3. a). Binding of the 3KE mutant of NRG1α (175-241) to recombinant ErbB3. Recombinant soluble ErbB3 Fc fusion protein (R&D system) was coated onto wells of 96-well microtiter plate (1 μg/ml). NRG1α (175-241) WT or 3KE (175-241) mutant was added to the wells and incubated for 1 h at room temperature. GST was used as a control. After washing the wells, bound GST NRG1α (175-241) was determined by using anti-GST antibody HRP conjugate. […] Competitive binding assay. Recombinant soluble ErbB3 Fc fusion protein was coated onto well of 96-well microtiter plate (1 μg/ml). Binding of biotin labeled NRG1α (175-241) WT (20 nM) in the presence of increasing concentrations of NRG1α (175-241) WT, 3KE (175-241) or GST. After washing the wells, bound biotin labeled NRG1α (175-241) WT was determined by using streptavidin HRP conjugate.
(In general: In an ELISA, binding on a coated surface is turned into a signal by an enzyme label.)

The subject of another experiment is MCF-7 cells. Nature of the experiment: Western blot analysis of NRG1 signaling in MCF-7 cells. Type of experiment: cell-based, human. Conditions: 2.5 nM. As for the experimental part: FIG. 22. Effect of the 3KE mutation on NRG1 signaling. The 3KE mutant of NRG1α (175-241) is defective in inducing ErbB3 phosphorylation, AKT activation and ERK1/2 activation. MCF-7 cells were serum-starved overnight and stimulated with 2.5 nM WT and the 3KE mutant of NRG1α (175-241) at indicated time points. Cell lysates were analyzed by western blotting. […] Data are shown with signals at time 0 as 1.
MCF-7 cells grown to confluence were serum-starved in serum-free medium overnight, and then treated with WT or 3KE mutant NRG1α (175-241) (2.5 nM) for 5 min to 6 h at 37° C. Cells were washed with ice-cold PBS once, and lysed with the lysis buffer (20 mM HEPES (pH 7.4), 100 mM NaCl, 10% Glycerol, 1% NP-40, 1 mM MgCl2, 5 mM EDTA, 0.5% Triton X-100, 1 mM phenylmethylsulfonyl fluoride, 20 mM NaF, 1 mM Na3VO4, protease inhibitor cocktail (Sigma-Aldrich)). Protein concentrations in the cell lysates were determined using BCA protein assay (Pierce). Equal amounts of cell proteins were analyzed by SDS-PAGE and transferred onto 0.45 μm pore-size polyvinylidene fluoride membrane (Milipore, Birellica, Mass.). The membrane was incubated with primary antibodies, then HRP-conjugated secondary antibody and enhanced chemiluminescence detection reagents (Pierce).
For orientation: In western blotting, separated proteins are transferred to a membrane and probed.

Numbering of substitutions follows the chain as printed. “Also recorded” adds a separate entry of the source.

T1 sequence (P23229 24-1130): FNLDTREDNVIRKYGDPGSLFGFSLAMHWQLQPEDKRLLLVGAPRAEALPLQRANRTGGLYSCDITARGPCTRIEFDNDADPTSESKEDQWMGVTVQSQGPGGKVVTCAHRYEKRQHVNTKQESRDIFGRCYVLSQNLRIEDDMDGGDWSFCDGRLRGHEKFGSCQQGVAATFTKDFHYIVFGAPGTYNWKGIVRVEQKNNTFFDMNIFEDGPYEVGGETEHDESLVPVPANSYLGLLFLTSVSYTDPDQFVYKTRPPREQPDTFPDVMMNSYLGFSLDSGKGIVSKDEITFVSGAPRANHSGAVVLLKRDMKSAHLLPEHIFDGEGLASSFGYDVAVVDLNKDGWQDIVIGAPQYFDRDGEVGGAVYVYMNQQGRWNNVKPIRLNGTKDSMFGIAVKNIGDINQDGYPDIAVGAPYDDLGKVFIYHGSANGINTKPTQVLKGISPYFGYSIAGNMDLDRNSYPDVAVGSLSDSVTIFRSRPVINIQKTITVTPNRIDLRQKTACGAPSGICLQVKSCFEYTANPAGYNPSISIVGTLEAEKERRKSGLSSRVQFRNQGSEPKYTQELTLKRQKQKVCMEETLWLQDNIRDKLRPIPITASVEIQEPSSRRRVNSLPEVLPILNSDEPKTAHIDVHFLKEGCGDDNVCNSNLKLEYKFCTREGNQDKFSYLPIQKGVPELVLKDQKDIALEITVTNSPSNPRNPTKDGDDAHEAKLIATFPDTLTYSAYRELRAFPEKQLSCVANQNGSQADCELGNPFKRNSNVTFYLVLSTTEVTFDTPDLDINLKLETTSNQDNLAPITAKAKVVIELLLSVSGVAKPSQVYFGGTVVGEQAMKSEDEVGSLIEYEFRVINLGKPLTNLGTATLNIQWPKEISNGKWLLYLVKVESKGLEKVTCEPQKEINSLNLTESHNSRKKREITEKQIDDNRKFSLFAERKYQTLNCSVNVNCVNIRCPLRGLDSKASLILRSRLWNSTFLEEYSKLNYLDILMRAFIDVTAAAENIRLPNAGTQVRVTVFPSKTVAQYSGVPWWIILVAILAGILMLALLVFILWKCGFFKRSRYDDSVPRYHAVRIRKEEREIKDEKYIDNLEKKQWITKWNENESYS
T1 sequence (P16144 28-1822): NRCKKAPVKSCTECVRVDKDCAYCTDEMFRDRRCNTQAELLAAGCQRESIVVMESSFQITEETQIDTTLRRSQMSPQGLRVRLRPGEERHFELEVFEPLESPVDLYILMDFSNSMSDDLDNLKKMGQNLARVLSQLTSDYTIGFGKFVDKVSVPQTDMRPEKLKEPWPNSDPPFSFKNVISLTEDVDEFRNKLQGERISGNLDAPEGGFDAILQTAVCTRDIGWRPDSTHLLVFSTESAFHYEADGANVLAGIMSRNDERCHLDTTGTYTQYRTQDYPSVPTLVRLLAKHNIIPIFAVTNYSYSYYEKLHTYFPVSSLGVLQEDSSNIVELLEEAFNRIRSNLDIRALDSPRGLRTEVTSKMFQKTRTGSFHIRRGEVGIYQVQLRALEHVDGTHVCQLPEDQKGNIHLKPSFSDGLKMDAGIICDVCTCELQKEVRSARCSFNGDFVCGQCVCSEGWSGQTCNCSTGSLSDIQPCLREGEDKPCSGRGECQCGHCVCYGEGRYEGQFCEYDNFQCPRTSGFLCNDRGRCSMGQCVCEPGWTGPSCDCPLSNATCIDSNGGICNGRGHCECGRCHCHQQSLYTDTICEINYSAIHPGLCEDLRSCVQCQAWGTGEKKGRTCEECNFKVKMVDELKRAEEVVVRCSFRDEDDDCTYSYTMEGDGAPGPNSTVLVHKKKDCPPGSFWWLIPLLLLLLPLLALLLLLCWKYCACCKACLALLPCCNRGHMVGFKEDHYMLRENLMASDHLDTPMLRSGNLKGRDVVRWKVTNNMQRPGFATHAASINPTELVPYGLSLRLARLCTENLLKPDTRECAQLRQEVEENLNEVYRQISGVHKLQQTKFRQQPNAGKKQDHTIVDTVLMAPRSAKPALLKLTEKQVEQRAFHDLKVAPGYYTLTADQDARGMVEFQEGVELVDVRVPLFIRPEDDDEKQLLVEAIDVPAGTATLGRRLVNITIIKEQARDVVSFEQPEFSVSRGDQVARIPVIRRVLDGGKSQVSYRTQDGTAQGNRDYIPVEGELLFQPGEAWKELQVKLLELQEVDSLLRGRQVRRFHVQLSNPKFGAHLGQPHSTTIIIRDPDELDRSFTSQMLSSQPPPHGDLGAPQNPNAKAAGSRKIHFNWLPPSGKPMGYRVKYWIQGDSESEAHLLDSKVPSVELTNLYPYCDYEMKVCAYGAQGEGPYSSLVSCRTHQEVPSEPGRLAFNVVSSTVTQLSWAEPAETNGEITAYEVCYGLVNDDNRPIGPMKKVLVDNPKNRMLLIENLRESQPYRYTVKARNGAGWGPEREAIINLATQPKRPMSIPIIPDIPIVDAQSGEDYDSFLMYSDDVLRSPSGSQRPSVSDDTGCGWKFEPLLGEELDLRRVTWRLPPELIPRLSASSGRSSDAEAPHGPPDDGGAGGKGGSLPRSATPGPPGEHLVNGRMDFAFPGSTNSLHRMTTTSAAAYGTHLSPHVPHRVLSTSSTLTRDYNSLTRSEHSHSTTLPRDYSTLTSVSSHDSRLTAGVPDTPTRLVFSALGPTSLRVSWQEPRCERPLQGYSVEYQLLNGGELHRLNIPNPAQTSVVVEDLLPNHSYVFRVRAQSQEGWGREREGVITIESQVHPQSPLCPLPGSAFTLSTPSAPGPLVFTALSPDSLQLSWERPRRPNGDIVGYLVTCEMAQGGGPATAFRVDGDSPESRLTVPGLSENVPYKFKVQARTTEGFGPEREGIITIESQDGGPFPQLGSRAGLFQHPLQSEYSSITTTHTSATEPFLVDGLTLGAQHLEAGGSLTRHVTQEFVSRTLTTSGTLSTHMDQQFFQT

On to “3KE (175-222): NRG1 (175-222) with Lys181/Lys185/Lys187 mutated to Glu; GTSHLVECAEEEETFCVNGGECFMVKDLSNPSRYLCKCQPGFTGARCT (SEQ ID NO:11) (integrin-binding site within human neuregulin, 3KE mutant, short version)”, for which the “Adhesion of α6β4-CHO cells to the immobilized protein” value in experiment [1] is reported as “did not adhere”. Also, in the experiment on M21 human melanoma cells, the “cyclin D1 levels in M21 cells” value is given as “suppressed”, the “ERK1/2 activation in M21 cells” value is given as “did not induce the level of ERK1/2 activation; also recorded: suppressed ERK1/2 activation” and the “ErbB3 phosphorylation in M21 cells” value is given as “did not induced ErbB3 phosphorylation”. Moreover, the “Induction of proliferation of MCF-7 cells” value in experiment [2] is listed as “did not”.
Turning to “wt NRG1 (175-222): wild type human neuregulin 1 fragment, EGF-like domain, residues 175-222 of SEQ ID NO:4 (SEQ ID NO:3) (GTSHLVKCAEKEKTFCVNGGECFMVKDLSNPSRYLCKCQPGFTGARCT; integrin-binding site within human neuregulin 1 EGF-like region and portion of alpha domain, residues 175-222 of human neuregulin 1 alpha) [reference compound]”, the “Adhesion of α6β4-CHO cells to the immobilized protein” value in experiment [1] is on record as “adhere”. In addition, in the experiment with M21 human melanoma cells, the “ERK1/2 activation in M21 cells” value is on record as “enhanced the level of ERK1/2 activation” and the “ErbB3 phosphorylation in M21 cells” value is on record as “induced ErbB3 phosphorylation”. Further, in the experiment on M21 human melanoma cells (listed as Wt NRG1 (175-222)), the “ERK1/2 activation in M21 cells” value is listed as “induced”. Further, the “Adhesion of mock-transfected K562 cells to the immobilized protein” value in experiment [3] is “did not”. Besides, the “Induction of proliferation of MCF-7 cells” value in experiment [2] is given as “induced cell proliferation”.

B1: WT NRG1α (175-241): wild type human neuregulin 1 fragment, residues 175-241 of SEQ ID NO:4 (SEQ ID NO:5), entire EGF-like motif and α domain (protein)
chain: GTSHLVKCAEKEKTFCVNGGECFMVKDLSNPSRYLCKCQPGFTGARCTENVPMKVQNQEKAEELYQK
modifications: integrin-binding site within human neuregulin, residues 175-241of human neuregulin 1alpha, long version
In the case of B1, the “Binding to immobilized soluble ErbB3 (ELISA-type assay)” value (“Binding to immobilized soluble ErbB3” below) in experiment [4] is “bound to immobilized soluble ErbB3 comparably”. Moreover, in the experiment on MCF-7 cells, the “AKT activation (phosphorylation) in MCF-7 cells” value is recorded as “markedly induced phosphorylation”, the “ERK1/2 activation (phosphorylation) in MCF-7 cells” value is recorded as “markedly induced phosphorylation” and the “ErbB3 phosphorylation in MCF-7 cells” value is on record as “markedly induced phosphorylation”. The “Adhesion of mock-transfected K562 cells to the immobilized protein” value in experiment [3] is “did not”.

B2: 3KE (175-241): NRG1α (175-241) with Lys181/Lys185/Lys187 mutated to Glu, SEQ ID NO:6 (3KE, long version) (protein)
chain: B1 chain with K7E, K11E, K13E
modifications: integrin-binding site within human neuregulin, residues 175-241of human neuregulin 1alpha, long version, 3KE mutant
As to B2, the “Binding to immobilized soluble ErbB3” value in experiment [4] (listed as 3KE mutant NRG1α (175-241)) is listed as “bound to immobilized soluble ErbB3 comparably”. Also, the “Binding to immobilized soluble ErbB3” value in experiment [4] (listed as 3KE mutant of NRG1α (175-241)) was “binds to ErbB3 at levels nearly comparable to WT NRG1α (175-241)”. In the experiment on MCF-7 cells, the “AKT activation (phosphorylation) in MCF-7 cells” value is given as “little or no AKT activation”, the “ERK1/2 activation (phosphorylation) in MCF-7 cells” value is on record as “much lower levels than WT NRG1α (175-241); also recorded: only weakly induced phosphorylation” and the “ErbB3 phosphorylation in MCF-7 cells” value was “much lower levels than WT NRG1α (175-241); also recorded: only weakly induced phosphorylation”.

Source of the values: US20110212108A1, “NEUREGULIN/ERBB SIGNALING AND INTEGRIN” (THE REGENTS OF THE UNIVERSITY OF CALIFORNIA, priority 2008, published 2011).
